For one experiment, the target named is human OX40 (human) (UniProt P43489). The experiment can be described thus: cell-based or functional assay.
The target of a further experiment is T1, Biotin-FcγRIIB (human, UniProt P31994 43-217, limits assumed, biotin-labelled).
T1 construct: Bought, biotin-labelled; used at 1 µg/ml for staining and sorting; also called human FcγRIIB; CD32b
T1 sequence (looked up): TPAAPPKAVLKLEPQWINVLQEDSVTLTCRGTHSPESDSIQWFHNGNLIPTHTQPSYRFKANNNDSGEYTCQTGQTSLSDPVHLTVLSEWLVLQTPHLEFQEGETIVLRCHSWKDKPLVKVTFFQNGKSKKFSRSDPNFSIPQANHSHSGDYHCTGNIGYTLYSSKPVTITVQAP
The experiment can be described thus: FACS sorting of displayed Fc library on biotin-FcγRIIB, NGS.

Where a chain is given by its changes, count along the chain named. Names may count otherwise.

Chain of human OX40 (human) (P43489 29-277): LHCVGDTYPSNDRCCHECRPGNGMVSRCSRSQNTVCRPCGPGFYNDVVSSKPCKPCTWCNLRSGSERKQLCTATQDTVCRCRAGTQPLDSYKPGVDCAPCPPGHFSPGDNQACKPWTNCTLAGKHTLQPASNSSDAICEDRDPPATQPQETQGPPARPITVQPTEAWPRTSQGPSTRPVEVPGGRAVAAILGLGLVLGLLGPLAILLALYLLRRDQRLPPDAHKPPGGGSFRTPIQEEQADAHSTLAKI

In the experiment with human OX40 (human), Ctrl hIgG (antibody) yielded an Average increased factor of the activity over wild-type IgG2 of two experiments of 0.65; an Experiment 1 CFSE fluorescence intensity, 0.01 µg/ml of 1020; an Experiment 1 CFSE fluorescence intensity, 0.1 µg/ml of 1080; an Experiment 1 CFSE fluorescence intensity, 1 µg/ml of 1070. For the same molecule, in the experiment with human OX40 (human), the Experiment 2 CFSE fluorescence intensity, 0.1 µg/ml stood at 2730 and the Experiment 2 CFSE fluorescence intensity, 1 µg/ml was 2590.

B1: human IgG2 anti-mouse CD40 surface displayed antibody, Fc mutant A330R (antibody, name in EU numbering)
light chain (with the P2A rest): DTVLTQSPALAVSPGERVTISCRASDSVSTLMHWYQQKPGQQPKLLIYLASHLESGVPARFSGSGSGTDFTLTIDPVEADDTATYYCQQSWNDPWTFGGGTKLELKRTVAAPSVFIFPPSDEQLKSGTASVVCLLNNFYPREAKVQWKVDNALQSGNSQESVTEQDSKDSTYSLSSTLTLSKADYEKHKVYACEVTHQGLSSPVTKSFNRGECGSGATNFSLLKQAGDVEENPG
heavy chain: EVQLVESDGGLVQPGRSLKLPCAASGFTFSDYYMAWVRQAPTKGLEWVASISYDGSSTYYRDSVKGRFTISRDNAKSTLYLQMDSLRSEDTATYYCGRHSSYFDYWGQGVMVTVSSASTKGPSVFPLAPCSRSTSESTAALGCLVKDYFPEPVTVSWNSGALTSGVHTFPAVLQSSGLYSLSSVVTVPSSNFGTQTYTCNVDHKPSNTKVDKTVERKCCVECPPCPAPPVAGPSVFLFPPKPKDTLMISRTPEVTCVVVDVSHEDPEVQFNWYVDGVEVHNAKTKPREEQFNSTFRVVSVLTVVHQDWLNGKEYKCKVSNKGLPRPIEKTISKTKGQPREPQVYTLPPSREEMTKNQVSLTCLVKGFYPSDIAVEWESNGQPENNYKTTPPMLDSDGSFFLYSKLTVDKSRWQQGNVFSCSVMHEALHNHYTQKSLSLSPGKLEPPPSTVSNMATVAVLVVLGAAIVTGAVVAFVMKMRRRNTGGKGGDYALAPGSQTSDLSLPDCKVMVHDPHSLA
notes: as m1; positions are Eu numbers; copies: 2 + 2
As to B1, in the experiment with Biotin-FcγRIIB, the “Increased factor b Site 2 (point mutation/wild-type)” value worked out at 0.

B2: human IgG2 anti-mouse CD40 surface displayed antibody, Fc mutant S298L (antibody, name in EU numbering)
light chain (with the P2A rest): B1 light chain (with the P2A rest)
heavy chain: B1 heavy chain with S293L, R325A
notes: as for B1
Turning to B2, in the experiment with Biotin-FcγRIIB, the “Increased factor b Site 2 (point mutation/wild-type)” value amounted to 2.9.

B3: human IgG2 anti-mouse CD40 surface displayed antibody, Fc mutant P331T (antibody, name in EU numbering)
light chain (with the P2A rest): B1 light chain (with the P2A rest)
heavy chain: B1 heavy chain with R325A, P326T
notes: as for B1
As to B3, in the experiment with Biotin-FcγRIIB, the “Increased factor b Site 2 (point mutation/wild-type)” value was 0.1.

B4: human IgG2 anti-mouse CD40 surface displayed antibody, Fc mutant S298E (antibody, name in EU numbering)
light chain (with the P2A rest): B1 light chain (with the P2A rest)
heavy chain: B1 heavy chain with S293E, R325A
notes: as for B1
In the case of B4, the “Increased factor b Site 2 (point mutation/wild-type)” value with Biotin-FcγRIIB turned out to be 7.1.

B5: human IgG2 anti-mouse CD40 surface displayed antibody, Fc mutant S298K (antibody, name in EU numbering)
light chain (with the P2A rest): B1 light chain (with the P2A rest)
heavy chain: B1 heavy chain with S293K, R325A
notes: as for B1
B5: the “Increased factor b Site 2 (point mutation/wild-type)” value with Biotin-FcγRIIB turned out to be 4.4.

B6: human IgG2 anti-mouse CD40 surface displayed antibody, Fc mutant P271C (antibody, name in EU numbering)
light chain (with the P2A rest): B1 light chain (with the P2A rest)
heavy chain: B1 heavy chain with P266C, R325A
notes: as for B1
Consider B6, for which the “Increased factor b Site 2 (point mutation/wild-type)” value with Biotin-FcγRIIB came out at 29.9.

B7: human IgG2 anti-mouse CD40 surface displayed antibody, Fc mutant P331C (antibody, name in EU numbering)
light chain (with the P2A rest): B1 light chain (with the P2A rest)
heavy chain: B1 heavy chain with R325A, P326C
notes: as for B1
For B7, the “Increased factor b Site 2 (point mutation/wild-type)” value with Biotin-FcγRIIB was found to be 0.2.

B8: human IgG2 anti-mouse CD40 surface displayed antibody, Fc mutant G327A (antibody, name in EU numbering)
light chain (with the P2A rest): B1 light chain (with the P2A rest)
heavy chain: B1 heavy chain with G322A, R325A
notes: as for B1
For B8, the “Increased factor b Site 1 (point mutation/wild-type)” value with Biotin-FcγRIIB turned out to be 3.4.

B9: human IgG2 anti-mouse CD40 surface displayed antibody, Fc mutant I332C (antibody, name in EU numbering)
light chain (with the P2A rest): B1 light chain (with the P2A rest)
heavy chain: B1 heavy chain with R325A, I327C
notes: as for B1
As to B9, the “Increased factor b Site 2 (point mutation/wild-type)” value with Biotin-FcγRIIB stood at 2.7.

B10: human IgG2 anti-mouse CD40 surface displayed antibody, Fc mutant S298N (antibody, name in EU numbering)
light chain (with the P2A rest): B1 light chain (with the P2A rest)
heavy chain: B1 heavy chain with S293N, R325A
notes: as for B1
As for B10, the “Increased factor b Site 2 (point mutation/wild-type)” value with Biotin-FcγRIIB turned out to be 2.3.

B11: human IgG2 anti-mouse CD40 surface displayed antibody, Fc mutant V266A (antibody, name in EU numbering)
light chain (with the P2A rest): B1 light chain (with the P2A rest)
heavy chain: B1 heavy chain with V261A, R325A
notes: as for B1
For B11, the “Increased factor b Site 1 (point mutation/wild-type)” value with Biotin-FcγRIIB came to 3.1.

B12: human IgG2 anti-mouse CD40 surface displayed antibody, Fc mutant I332A (antibody, name in EU numbering)
light chain (with the P2A rest): B1 light chain (with the P2A rest)
heavy chain: B1 heavy chain with R325A, I327A
notes: as for B1
On to B12, for which, in the experiment with Biotin-FcγRIIB, the “Increased factor b Site 2 (point mutation/wild-type)” value was determined as 16.4.

B13: human IgG2 anti-mouse CD40 surface displayed antibody, Fc mutant S267M (antibody, name in EU numbering)
light chain (with the P2A rest): B1 light chain (with the P2A rest)
heavy chain: B1 heavy chain with S262M, R325A
notes: as for B1
In the case of B13, the “Increased factor b Site 1 (point mutation/wild-type)” value with Biotin-FcγRIIB stood at 2.6.

B14: human IgG2 anti-mouse CD40 surface displayed antibody, Fc mutant L328E (antibody, name in EU numbering)
light chain (with the P2A rest): B1 light chain (with the P2A rest)
heavy chain: B1 heavy chain with L323E, R325A
notes: as for B1
As to B14, the “Increased factor b Site 1 (point mutation/wild-type)” value with Biotin-FcγRIIB was determined as 0.1.

B15: human IgG2 anti-mouse CD40 surface displayed antibody, Fc mutant S267A (antibody, name in EU numbering)
light chain (with the P2A rest): B1 light chain (with the P2A rest)
heavy chain: B1 heavy chain with S262A, R325A
notes: as for B1
Consider B15, for which, in the experiment with Biotin-FcγRIIB, the “Increased factor b Site 1 (point mutation/wild-type)” value worked out at 5.5.

B16: human IgG2 anti-mouse CD40 surface displayed antibody, Fc mutant L328E/I332T (antibody, name in EU numbering)
light chain (with the P2A rest): B1 light chain (with the P2A rest)
heavy chain: B1 heavy chain with L323E, R325A, I327T
notes: as for B1
For the molecule B16, in the experiment with Biotin-FcγRIIB, the “Enrichment factor (after/before sorting)” value was determined as 55.1 and the “Increased factor a (enrichment factor/wild-type enrichment factor)” value worked out at 36.9.

B17: anti-human OX40 antibody, human IgG2 Fc mutant Mut_8 (V266L/L328W) (antibody, name in EU numbering)
heavy: QVQLQESGPGLVKPSGTLSLTCAVSGGSISSSIWWSWVRQPPGKGLEWIGEIHHSGNTNCNPSLKSRVTISIDKSKNQFSLKLTSVTAADTAVYYCARAGTGTTLDYWGQGTLVTVSSASTKGPSVFPLAPCSRSTSESTAALGCLVKDYFPEPVTVSWNSGALTSGVHTFPAVLQSSGLYSLSSVVTVPSSNFGTQTYTCNVDHKPSNTKVDKTVERKCCVECPPCPAPPVAGPSVFLFPPKPKDTLMISRTPEVTCVVVDLSHEDPEVQFNWYVDGVEVHNAKTKPREEQFNSTFRVVSVLTVVHQDWLNGKEYKCKVSNKGWPAPIEKTISKTKGQPREPQVYTLPPSREEMTKNQVSLTCLVKGFYPSDIAVEWESNGQPENNYKTTPPMLDSDGSFFLYSKLTVDKSRWQQGNVFSCSVMHEALHNHYTQKSLSLSPGK
light: EIVLTQSPGTLSLSPGERATLSCRASQSVSGDYLAWYQQKLGQAPRLLIYGASIRATGIPDRFSGSGSGTDFTLTISKLEPEDFAVYYCQQYGSSPLTFGGGTKVEIKRTVAAPSVFIFPPSDEQLKSGTASVVCLLNNFYPREAKVQWKVDNALQSGNSQESVTEQDSKDSTYSLSSTLTLSKADYEKHKVYACEVTHQGLSSPVTKSFNRGEC
B17: in the experiment with human OX40 (human), the Average increased factor of the activity over wild-type IgG2 of two experiments turned out to be 12.3; the Average relative activity of two experiments came out at 0.54; the Experiment 1 CFSE fluorescence intensity, 0.01 µg/ml stood at 844; the Experiment 1 CFSE fluorescence intensity, 0.1 µg/ml turned out to be 719. In the experiment with human OX40 (human), this molecule gave an Experiment 1 CFSE fluorescence intensity, 1 µg/ml of 799; an Experiment 1 average relative activity of 0.46; an Experiment 1 relative activity, 0.01 µg/ml of 0.36; an Experiment 1 relative activity, 0.1 µg/ml of 0.59. In the experiment with human OX40 (human), this molecule displayed an Experiment 1 relative activity, 1 µg/ml of 0.44; an Experiment 2 CFSE fluorescence intensity, 0.1 µg/ml of 1810; an Experiment 2 CFSE fluorescence intensity, 1 µg/ml of 1440; an Experiment 2 average relative activity of 0.65. Further, in the experiment with human OX40 (human), the Experiment 2 relative activity, 0.1 µg/ml worked out at 0.55 and the Experiment 2 relative activity, 1 µg/ml was 0.75.

Values taken from US20230220042A1 (SHANGHAI JIAO TONG UNIVERSITY SCHOOL OF MEDICINE, published 2023).
